Assay: yeast display, Sf9 membrane polyspecificity reagent, FACS + sequencing; frameworks hold sequencing errors
In short: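 Nanobodies from a synthetic yeast display library (Saccharomyces cerevisiae BJ5465), induced 36–48 hours with galactose, were stained 1 hour at 4 °C with 10% biotinylated, detergent-solubilized Sf9 membrane reagent, enriched on streptavidin microbeads, then FACS-sorted. Anti-HA (expression) and streptavidin (reagent binding) fluorescence set low and high (top ~1%) gates. Polyreactivity labels come from the gate of origin. Genes were colony-PCR amplified, MiSeq 2 × 250 sequenced and filtered by CDR length.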

Sequence	polyreactivity (PSR sort gate)
QVQLVESGGGLVQAGGSLRLSCAASGFIFWLYAMGWYRKAPVKESELVAAISWSDGSTYYADSVKGRFTISRDNAKNSVYLQMNCLKREDTAVYYCNTVRVHGFPIDRIYDYWGQGTQVTVSS	high polyreactivity
QVQLVESGGGLVQAGGSLRLSCAASGFIFWLYAMGWYRQAPGKERELVAAISRSGGRTYYADSVKGRFTISRDNAKNTVYLQMNSLKPEDTAVYYCAKDDNYKSYPYDYWGQGTQVTVSS	high polyreactivity
QVQLVESGGGLVQAGGSLRLSCAASGFIFWRNAMGWYRQAPGKERELVAAITSGDRTNYADSVKGRFTISRDNAKNTVYLQMNSLKPEDTAVYYCNARRLRLVSYDYCGQGTQVTVSS	low polyreactivity
QVQLVESGGGLVQAGGSLRLSCAASGFIFWSYAMGWYIQAPGKERELVAAINTSGDSTYYADSVKGRFTISRDNAKNTVYLQMNSLKPEDTAVYYCAAKSSTRGDYWGQGTQVTVSS	low polyreactivity
QVQLVESGGGLVQAGGSLRLSCAASGFIFWWYAMGWYRQAPGKERELVATITASVGSTNYADSVKGRFTISRDNAKNTVYLQMNSLKPEDTAVYYCASDIIGAIRDWDHTRMDYWGQGTQVNVSS	low polyreactivity
QVQLVESGGGLVQAGGSLRLSCAASGFIFWYNAMGWYRQAPGKERELVADNTSGGSTTYADSVKGRFTISRDNAKNTVYLQMNSLKPEDTAVYYCAASIRRYWLHPGDYWGQGTQVTVSS	low polyreactivity
QVQLVESGGGLVQAGGSLRLSCAASGFIFWYYAIGWYRQAPGKERELVADISSGGSTNYADSVKGRFTISRDNAKNTVYLQMNSLKPEDTAVYYCADDTFRRDDYWGQGTQVTVSS	low polyreactivity
QVQLVESGGGLVQAGGSLRLSCAASGFIFWYYAMGWYRQAPGKERELVAAISSRGGSTYYADSVKGRFTISRDNAKNTVYLQMNSLKPEDTAVYYCAATGYTGYSRYYYWGQGTQVTVSS	high polyreactivity
QVQLVESGGGLVQAGGSLRLSCAASGFIFWYYDMGWYRQAPGKERELVAAISDRGGSTSYADSVKGRFTISRDNAKNTVYLQMNSLKPEDTAVYSCAVDRSLSPFAYDYWGQGTQVTVSS	low polyreactivity
QVQLVESGGGLVQAGGSLRLSCAASGFIFYDYALGWYRQAPGKERELVAAITQRGGSTYYADSVKGRFPISRDNAKKTVYLQMTSLKPVDTAVYSCAAKDAPYWFPITHVQPVDMDYWGQGTQVTVSS	high polyreactivity
QVQLVESGGGLVQAGGSLRLSCAASGFIFYDYAMGWYRQAPGKERELVAVITRGGSTYYADSVKGRFTISRDNAKNTVYLQMNSLKPEDTAVYYCAAYWFTPGFTFDYWGQGTQVTVSS	low polyreactivity
QVQLVESGGGLVQAGGSLRLSCAASGFIFYEYAMGWYRQSPGKERELVAGISWSGDSTYYADSVKGRFTISRDNAKNTVYLQMNRLKPEDTAVYYCAADPYYQGYDYWGQGTQVTVSS	low polyreactivity
QVQLVESGGGLVQAGGSLRLSCAASGFIFYGYAKGWYRQAPGKERELVAGISTGGSKNYADSVKGRFTISRDNAKNTVYVQMNSLKPEDTAVDYCAVVDVEEHVGHWGQGTQVTVSS	low polyreactivity
QVQLVESGGGLVQAGGSLRLSCAASGFIFYGYAMGWYRQAPGKERELVAGISTVGSTNYADSVKGRFTISRDNAKNTVYLQMNSLKPEDSAVYYCAVVDVEDHVGHWGQGTQVTVSS	low polyreactivity
QVQLVESGGGLVQAGGSLRLSCAASGFIFYHNAMGWYRQAPGKERELVAVISSGGSTYYADSVKGRFTISRDNAKNTVYLQMNSLKPEDTAVYYCAALYYGWSGSYAMDYWGQGTQVTVSS	high polyreactivity
QVQLVESGGGLVQAGGSLRLSCAASGFIFYHYAMGRYRQAPGKERELVAAISWNGGRTYYADSVKGRFTISRDNAKNTVYLQMNSLKPEDTAVYYCAAYWTRVERVYWGQGTQVTVSS	high polyreactivity

Sequence	polyreactivity (PSR sort gate)
QVQLVESGGGLVQAGGSLRLSCAASGFIFYHYAMGWYRQAPGKRRELVAAISYSGGSTYYADSVKGRFTISRDNGKNTVYLQMNSLKPEDPAVYYCNAVYHTRLYTLSTFDYWGQGTQVTVSS	high polyreactivity
QVQLVESGGGLVQAGGSLRLSCAASGFIFYIYPMGWYRQAPGKERELLAAISWNGGSTYYADSVKGRFTISRDNAKNTVYLQMNSLNPEDTAVFYCATLARYRYGTGRFDYWGQGTQVTVSS	high polyreactivity
QVQLVESGGGLVQAGGSLRLSCAASGFIFYKYAMGWYRQAPGKEREFVAAISSRGSRTYYADSVKGRFTISRDNAKNTVYLQMNSLKPEDTAVYYCAAGYWARLYDYDYWGQGTQVTVSS	high polyreactivity
QVQLVESGGGLVQAGGSLRLSCAASGFIFYKYAMGWYRQAPGKERELVAAITARGGSTYYADSVKGRFTISRDNAKNTVYLQMNSLKPEDTAVYYCAADTYFSGAGGQAYQYDYWGQGTQVTVSS	high polyreactivity
QVQLVESGGGLVQAGGSLRLSCAASGFIFYKYAMGWYRQAPGKERELVAAITWRGGRTNYADSVKGRFTISRDNAKNTVYLQMNSLKPEDTAVYYCAADPWYSSYYYSYEYWGQGTQVTVSS	high polyreactivity
QVQLVESGGGLVQAGGSLRLSCAASGFIFYKYAMGWYRQAPGKERELVAGITWNVGSTYYADSVKGRFTISRDNAKNTVYLQMNSMKPEDTAVYYCAARHSYLGGTISLLYDYWGQGTQVTVSS	low polyreactivity
QVQLVESGGGLVQAGGSLRLSCAASGFIFYLYAMGWYRQAPGKERELVASINVSGASTRYADSVKGRFTISRDNAKNTDYLQMNSLKPEDTAVYYCAAPSRYDYWGQGTQVTVSS	low polyreactivity
QVQLVESGGGLVQAGGSLRLSCAASGFIFYLYTMGWYRQAPGKERELVAAITGGGGTYYADSVKGRFTISRDNAKNTVYLQMNSLKPEDTAVYYCAAEYYLYLWDEYDYWGQGTQVTVSS	high polyreactivity
QVQLVESGGGLVQAGGSLRLSCAASGFIFYPYAMAWYRQAPGKERELVAVITSGGRTYYADSVKGRFTISRDNAKNTVYLQMNSLKPEDTAVYYCAARYGRIHWKANWPEYGYWGQGTQVTVSS	low polyreactivity
QVQLVESGGGLVQAGGSLRLSCAASGFIFYPYAMGWYRQAPGKERELVAAITWSGSRTYYADSVKGRFTISRDNAKHTVYLQMNSLKPEDTAVYYCNKYPQPTAYDYWGQGTQVTVSS	high polyreactivity
QVQLVESGGGLVQAGGSLRLSCAASGFIFYRNTMGWYRQAPGKEREFVAAIRWRGGSTYYADSVKGRFTISRDNAKNTVYLQMNSLKPEDTAVYYCAAGTPWSVEGSYVTYPWNRYYYWGQGTQVTVSS	high polyreactivity
QVQLVESGGGLVQAGGSLRLSCAASGFIFYRYAMGWYRLAPGKERELVAAISSSGGSTYYADSVKGRFTISRDYAKYSVYLQMNSLKPEDTAVYYCAVDYWGQGTQVTVSS	high polyreactivity
QVQLVESGGGLVQAGGSLRLSCAASGFIFYRYAMGWYRQAPGKEREFVAAITRSAGGTYYADSVKGRFTISRDNEKNTVYLQMNSLKPEDTAVYYCAAVYRSGSRYYLGWYNYWGQGTQVTVSS	high polyreactivity
QVQLVESGGGLVQAGGSLRLSCAASGFIFYRYAMGWYRQAPGKERELVAAINWSGGGTYYADSVKGRFTISRDNAKNTVYLQMNSLKPEDTAVYYCAAGRSFRGSYWYEYWGQGTQVTVSS	high polyreactivity
QVQLVESGGGLVQAGGSLRLSCAASGFIFYRYAMGWYRQAPGKERELVAAISSSGGSTYYADSVKGRFTISRDNAKNTVYLQMNSLKPEDTAVYYCAAEPSGKRSKFYYLGQGTQVTVSS	high polyreactivity
QVQLVESGGGLVQAGGSLRLSCAASGFIFYRYAMGWYRQAPGKERELVAAITGSGARTYYADSVKGRFTISRDNAKNTVYLQMNSLKPEDTAVYYCAARYILSKYGSGVRYNYWGQGTQVTVSS	high polyreactivity
